The target of the assay is T1, interleukin-23 receptor (IL-23R), Q5VWK5.
T1 chain: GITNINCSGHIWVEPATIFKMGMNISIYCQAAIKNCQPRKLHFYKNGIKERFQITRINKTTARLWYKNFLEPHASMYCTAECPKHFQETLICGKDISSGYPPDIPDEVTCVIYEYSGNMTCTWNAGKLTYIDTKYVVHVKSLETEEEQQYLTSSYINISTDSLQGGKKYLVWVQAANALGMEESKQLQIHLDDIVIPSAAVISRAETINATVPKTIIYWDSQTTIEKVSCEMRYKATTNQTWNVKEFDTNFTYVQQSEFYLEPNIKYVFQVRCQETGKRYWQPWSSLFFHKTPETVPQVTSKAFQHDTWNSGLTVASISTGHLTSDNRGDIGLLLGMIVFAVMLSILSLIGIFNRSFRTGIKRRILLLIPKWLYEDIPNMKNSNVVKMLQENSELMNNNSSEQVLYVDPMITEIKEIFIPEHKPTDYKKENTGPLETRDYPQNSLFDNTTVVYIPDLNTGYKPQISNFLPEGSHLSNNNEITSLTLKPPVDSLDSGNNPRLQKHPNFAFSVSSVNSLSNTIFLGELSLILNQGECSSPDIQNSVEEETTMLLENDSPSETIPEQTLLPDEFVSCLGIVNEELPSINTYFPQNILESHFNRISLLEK
Description: cell-based or functional assay.

Starred links: 1 amine or outer side, 2 acyl side, 3 side chain; linkers in the order of their positions; H or OH if unused. Positions of bridges follow the written chain, without caps; N, C: chain ends. Non-standard residues stand in square brackets, D forms with d. No end group written: not given here. *: point of attachment. X1 = 3‑(7-(3-acetamidophenyl)-1H-indol-3-yl)‑2‑aminopropanoic acid, CC(=O)Nc1cccc(-c2cccc3c(CC(N[*:1])C(=O)[*:2])c[nH]c23)c1; X3 = 4‑(2-(4-(2-amino-2-carboxyethyl)phenoxy)ethyl)‑4‑methylmorpholin‑4‑ium, C[N+]1(CCOc2ccc(CC(N[*:1])C(=O)[*:2])cc2)CCOCC1; X10 = 2‑amino‑3‑(4-(2-guanidinoethoxy)phenyl)propanoic acid, N=C(N)NCCOc1ccc(CC(N[*:1])C(=O)[*:2])cc1; X11 = 2‑amino‑3‑(2-hydroxyquinolin-6-yl)propanoic acid, O=C(C(Cc1ccc2nc(O[*:3])ccc2c1)N[*:1])[*:2]; X7 = 2‑amino‑3‑(5-methylpyridin-3-yl)propanoic acid, Cc1cncc(CC(N[*:1])C(=O)[*:2])c1; Trp(7-(3-AcNH-Ph)) = CC(=O)Nc1cccc(-c2cccc3c(C[C@H](N)C(=O)O)c[nH]c23)c1; 2Nal(6-OH) = N[C@@H](Cc1ccc2cc(O)ccc2c1)C(=O)O; Trp(7-Me) = Cc1cccc2c(C[C@H](N)C(=O)O)c[nH]c12; dLys(Me3) = C[N+](C)(C)CCCC[C@@H](N)C(=O)O; AEF = NCCOc1ccc(C[C@H](N)C(=O)O)cc1; 3Pal = N[C@@H](Cc1cccnc1)C(=O)O; Pen = CC(C)(S)[C@H](N)C(=O)O; αMeC = C[C@](N)(CS)C(=O)O; Thp = NC1(C(=O)O)CCOCC1; Abu = CC[C@H](N)C(=O)O; Propionyl = CCC(=O)*; Sar = CNCC(=O)O

B1: SEQ ID NO: 91 (peptide)
peptide: K[Pen]NT[Trp(7-Me)]K(Ac)[Pen][2‑amino‑3‑(4-(2-aminoethoxy)phenyl)propanoic acid][2‑amino‑3‑(6-hydroxynaphthalen-2-yl)propanoic acid][Thp]EN[3Pal][Sar]
modifications: disulfide 2-7 (inferred); not fully specified (residue 1); ends not checked; also: K1: lipidated lysine, lipid not given here
As for B1, the IL23R Reporter Assay IC50 was < 10 nM and the PBMC pSTAT3 IC50 is < 0.1 nM.

B2: SEQ ID NO: 94 (peptide)
peptide: R[Pen]NT[Trp(7-Me)]K(Ac)[Pen][AEF][2Nal(6-OH)][Thp]EN[3Pal][Sar]
modifications: disulfide 2-7 (inferred); ends not checked
With B2, the IL23R Reporter Assay IC50 was < 10 nM and the PBMC pSTAT3 IC50 is < 1 nM.

B3: SEQ ID NO: 98 (peptide)
peptide: [Abu]NTWQC[AEF][2Nal(6-OH)][Thp]EN[3Pal][Sar]
modifications: ends and bridges not checked
In the case of B3, the IL23R Reporter Assay IC50 is < 10 nM and the PBMC pSTAT3 IC50 was < 10 pM.

B4: SEQ ID NO: 100 (peptide)
peptide: [Pen]NT[Trp(7-(3-AcNH-Ph))]K(Ac)[Pen][X3][2Nal(6-OH)][Thp]EN[3Pal][Sar]
modifications: disulfide 1-6 (inferred); ends not checked
B4: the IL23R Reporter Assay IC50 was < 10 nM and the PBMC pSTAT3 IC50 was < 10 pM.

B5: SEQ ID NO: 20 (peptide)
peptide: R[Pen]NT[X1]K(Ac)[Pen][5‑(4-(2-amino-2-carboxyethyl)phenoxy)‑N,N,N‑trimethylpentan‑1‑aminium][2‑amino‑3‑(6-hydroxynaphthalen-2-yl)propanoic acid][Thp]EN[X7][Sar]
modifications: ends and bridges not checked
B5: the IL23R Reporter Assay IC50 is < 10 nM and the PBMC pSTAT3 IC50 is < 0.1 nM.

B6: SEQ ID NO: 120 (peptide)
peptide: R[Pen]NT[Trp(7-Me)]K[Pen][AEF][2Nal(6-OH)][Thp]EN[3Pal][Sar]
modifications: disulfide 2-7 (inferred); ends not checked; also: K6: lipidated lysine, lipid not given here
Take B6: the IL23R Reporter Assay IC50 is > 100 nM and the PBMC pSTAT3 IC50 was < 1 nM.

B7: SEQ ID NO: 152 (peptide)
peptide: [Pen]NT[X1]K[Pen][2‑amino‑3‑(4-(2-aminoethoxy)phenyl)propanoic acid][2‑amino‑3‑(6-hydroxynaphthalen-2-yl)propanoic acid][Thp]K(Ac)N[3Pal][Sar]
modifications: disulfide 1-6 (inferred); ends not checked; also: Lys5: lipidated lysine, lipid not given here
Turning to B7, the IL23R Reporter Assay IC50 was > 100 nM and the PBMC pSTAT3 IC50 was < 1 nM.

B8: SEQ ID NO: 90 (peptide)
peptide: K[Pen]NT[Trp(7-Me)]K(Ac)[Pen][2‑amino‑3‑(4-(2-aminoethoxy)phenyl)propanoic acid][2‑amino‑3‑(6-hydroxynaphthalen-2-yl)propanoic acid][Thp]EN[3Pal][Sar]
modifications: disulfide 2-7 (inferred); not fully specified (residue 1); ends not checked; also: K1: lipidated lysine, lipid not given here
As for B8, the IL23R Reporter Assay IC50 was < 10 nM and the PBMC pSTAT3 IC50 was < 0.1 nM.

B9: SEQ ID NO: 17 (peptide)
peptide: [dLys(Me3)][Pen]NT[X1]K(Ac)[Pen][5‑(4-(2-amino-2-carboxyethyl)phenoxy)‑N,N,N‑trimethylpentan‑1‑aminium][2‑amino‑3‑(6-hydroxynaphthalen-2-yl)propanoic acid][Thp]EN[X7][Sar]
modifications: ends and bridges not checked
With B9, the IL23R Reporter Assay IC50 is < 10 nM and the PBMC pSTAT3 IC50 is < 10 pM.

B10: SEQ ID NO: 10 (peptide)
peptide: [dK](Propionyl)[Abu]NTWQC[AEF][2Nal(6-OH)][Thp]CN[3Pal][Sar]
modifications: ends and bridges not checked
On to B10, for which the IL23R Reporter Assay IC50 was < 10 nM and the PBMC pSTAT3 IC50 is < 10 pM.

B11: SEQ ID NO: 149 (peptide)
peptide: [Pen]NT[Trp(7-Me)]K(Ac)[Pen][2‑amino‑3‑(4-(2-aminoethoxy)phenyl)propanoic acid][X11][Thp]EN[3Pal][Sar]
modifications: disulfide 1-6 (inferred); ends not checked
As for B11, the IL23R Reporter Assay IC50 was < 10 nM and the PBMC pSTAT3 IC50 was < 0.1 nM.

B12: SEQ ID NO: 137 (peptide)
peptide: R[Pen]ET[Trp(7-Me)]K(Ac)[Pen][AEF][2Nal(6-OH)][Thp]EN[3Pal][Sar]
modifications: disulfide 2-7 (inferred); ends not checked
For B12, the IL23R Reporter Assay IC50 was < 10 nM and the PBMC pSTAT3 IC50 is < 10 pM.

B13: SEQ ID NO: 95 (peptide)
peptide: [Pen]NT[Trp(7-Me)]K(Ac)[Pen][AEF][2Nal(6-OH)][Thp]KN[3Pal][Sar]
modifications: disulfide 1-6 (inferred); not fully specified (residue 10); ends not checked; also: K10: lipidated lysine, lipid not given here
In the case of B13, the IL23R Reporter Assay IC50 is < 10 nM and the PBMC pSTAT3 IC50 is < 0.1 nM.

B14: SEQ ID NO: 89 (peptide)
peptide: R[Pen]KT[Trp(7-Me)]K(Ac)[Pen][2‑amino‑3‑(4-(2-aminoethoxy)phenyl)propanoic acid][2‑amino‑3‑(6-hydroxynaphthalen-2-yl)propanoic acid][Thp]EN[3Pal][Sar]
modifications: disulfide 2-7 (inferred); not fully specified (residue 3); ends not checked; also: K3: lipidated lysine, lipid not given here
With B14, the IL23R Reporter Assay IC50 was < 10 nM and the PBMC pSTAT3 IC50 was < 0.1 nM.

B15: SEQ ID NO: 1 (peptide)
peptide: [dK](Me3)[Abu]NTWK(Ac)[αMeC][X10][2Nal(6-OH)][Thp]EN[3Pal][Sar]
modifications: ends and bridges not checked
Regarding B15, the IL23R Reporter Assay IC50 was < 10 nM.

B16: SEQ ID NO: 132 (peptide)
peptide: [Pen]NT[X1]K(Ac)[Pen][AEF][2Nal(6-OH)][Thp]EN[3Pal][Sar]
modifications: disulfide 1-6 (inferred); ends not checked
Regarding B16, the IL23R Reporter Assay IC50 is < 10 nM and the PBMC pSTAT3 IC50 was < 10 pM.

B17: SEQ ID NO: 154 (peptide)
peptide: R[Pen]NT[X1]K[Pen][2‑amino‑3‑(4-(2-aminoethoxy)phenyl)propanoic acid][2‑amino‑3‑(6-hydroxynaphthalen-2-yl)propanoic acid][Thp]EN[3Pal][Sar]
modifications: disulfide 2-7 (inferred); ends not checked; also: K6: lipidated lysine, lipid not given here
Turning to B17, the IL23R Reporter Assay IC50 is > 100 nM and the PBMC pSTAT3 IC50 was < 1 nM.

B18: SEQ ID NO: 136 (peptide)
peptide: R[Pen]ET[Trp(7-Me)]K(Ac)[Pen][AEF][2Nal(6-OH)][Thp]EN[3Pal][Sar]
modifications: disulfide 2-7 (inferred); ends not checked
For B18, the IL23R Reporter Assay IC50 is < 10 nM and the PBMC pSTAT3 IC50 was < 10 pM.

B19: SEQ ID NO: 16 (peptide)
peptide: [Pen]NT[X1]K(Ac)[Pen][X10][2‑amino‑3‑(6-hydroxynaphthalen-2-yl)propanoic acid][Thp]EN[X7][Sar]
modifications: ends and bridges not checked
As to B19, the IL23R Reporter Assay IC50 is < 10 nM and the PBMC pSTAT3 IC50 was < 10 pM.

B20: SEQ ID NO: 92 (peptide)
peptide: R[Pen]NT[Trp(7-Me)]K(Ac)[Pen][2‑amino‑3‑(4-(2-aminoethoxy)phenyl)propanoic acid][2‑amino‑3‑(6-hydroxynaphthalen-2-yl)propanoic acid][Thp]EN[3Pal][Sar]K
modifications: disulfide 2-7 (inferred); not fully specified (residue 15); ends not checked; also: K15: lipidated lysine, lipid not given here
On to B20, for which the IL23R Reporter Assay IC50 is < 10 nM and the PBMC pSTAT3 IC50 was < 0.1 nM.

B21: SEQ ID NO: 2 (peptide)
peptide: RCNT[X1]K(Ac)[αMeC][2‑amino‑3‑(4-(2-aminoethoxy)phenyl)propanoic acid][2‑amino‑3‑(6-hydroxynaphthalen-2-yl)propanoic acid][Thp]EN[3Pal][Sar]
modifications: ends and bridges not checked
As to B21, the IL23R Reporter Assay IC50 is < 10 nM.

B22: SEQ ID NO: 130 (peptide)
peptide: [Pen]NT[Trp(7-Me)]K[Pen][AEF][2Nal(6-OH)][Thp]K(Ac)N[3Pal][Sar]
modifications: disulfide 1-6 (inferred); ends not checked; also: K5: lipidated lysine, lipid not given here
In the case of B22, the IL23R Reporter Assay IC50 is > 100 nM and the PBMC pSTAT3 IC50 was < 1 nM.
